The values below come from the supplement of paper PMC7877785.

± gives the uncertainty stated by the source.

The nature of the series: self-splicing fitness, log relative to wild type (ln ratio); higher = more splicing; Tetrahymena group I intron in knt gene, E. coli kanamycin selection, DiMSum; sequences stand for … in CUCUCU…GGAGGGAAAAGUUAUCAGGCAUGCACCUGGUAGCUAGUCUUUAAACCAAUAGAUUGCAUCGGUUUAAAAGGCAAGACCGUCAAAUUGCGGGAAAGGGGUCAACAGCCGUUCAGUACCAAGUCUCAGGGGAAACUUUGAGAUGGCCUUGCAAAGGGUAUGGUAAUAAGCUGACGGACAUGGUCCUAACCACGCAGCCAAGUCCUAAGUCAACAGAUCUUCUGUUGAUAUGGAUGCAGUUCACAGACUAAAUGUCGGUCGGGGAAGAUGUAUUCUUCUCAUAAGAUAUAGUCGGACCUCUCCUUAAUGGGAGCUAGCGGAUGAAGUGAUGCAACACUGGAGCCGCUGGGAACUAAUUUGUAUGCGAAAGUAUAUUGAUUAGUUUUGGAGUACUCGUGGUCG
In short, it runs like this: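 A randomised library covering all eight P1ex-region intron nucleotides was built with the intron in the knt kanamycin-resistance gene on pET-22b(+) and held in E. coli BL21(DE3). Cells were grown overnight at 37°C or 30°C on LB agar, with or without 25 μg/mL kanamycin, plus 100 μg/mL carbenicillin, 50 μM IPTG and 0.2% rhamnose, and pooled colonies were amplicon-sequenced on an Illumina HiSeq 2500. DiMSum fitness is the error-weighted combination of wild-type-normalised replicate fold changes, kanamycin versus none.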

Regarding ACAAAGCAAUAUUACGAGAA, the “self-splicing fitness (ln)” value reads like this: (30 °C) -2.54 ± 0.28; (37 °C) -2.87 ± 0.35.

On to UAAAAGCAAUAUUACGGUUG, for which the “self-splicing fitness (ln)” value (30 °C) is -1.53 ± 0.075 and the “self-splicing fitness (ln)” value (37 °C) is -0.701 ± 0.096.

As for AGAAAGCAAUAUUACGAGCG, the “self-splicing fitness (ln)” value runs as follows: (30 °C) -1.21 ± 0.095; (37 °C) -0.574 ± 0.13.

As to GAGCAGCAAUAUUACGGUCG, the “self-splicing fitness (ln)” value is -2 ± 0.17 (30 °C) and -2.28 ± 0.17 (37 °C).

As to AGUCAGCAAUAUUACGUUUA, the “self-splicing fitness (ln)” value is -2.23 ± 0.11 (30 °C) and -1.36 ± 0.099 (37 °C).

In the case of AAAUAGCAAUAUUACGUCGC, the “self-splicing fitness (ln)” value was -2.54 ± 0.15 (30 °C) and -2.54 ± 0.28 (37 °C).

As for UCAUAGCAAUAUUACGCAAC, the “self-splicing fitness (ln)” value is -3.77 ± 0.39 (30 °C) and -1.48 ± 0.32 (37 °C).

Consider GGAUAGCAAUAUUACGGGUG, for which the “self-splicing fitness (ln)” value by setting is: (30 °C) -2.79 ± 0.33; (37 °C) -0.239 ± 0.17.

As for GCCCAGCAAUAUUACGCGGU, the “self-splicing fitness (ln)” value (30 °C) was -3.33 ± 0.16 and the “self-splicing fitness (ln)” value (37 °C) is -3.02 ± 0.19.

Turning to CGUUAGCAAUAUUACGAGCG, the “self-splicing fitness (ln)” value by setting is: (30 °C) -3.69 ± 0.21; (37 °C) -2.63 ± 0.21.

Consider AGCAAGCAAUAUUACGACCC, for which the “self-splicing fitness (ln)” value is -0.234 ± 0.18 (30 °C) and -0.196 ± 0.25 (37 °C).

As for CUUGAGCAAUAUUACGGAUA, the “self-splicing fitness (ln)” value was -3.62 ± 0.4 (30 °C) and -1.76 ± 0.4 (37 °C).

Take UCGUAGCAAUAUUACGUAGG: the “self-splicing fitness (ln)” value is -2.71 ± 0.17 (30 °C) and -0.631 ± 0.15 (37 °C).

Turning to GAUGAGCAAUAUUACGCACC, the “self-splicing fitness (ln)” value reads like this: (30 °C) -1.94 ± 0.44; (37 °C) -1.13 ± 0.31.

GCAAAGCAAUAUUACGAGCU: the “self-splicing fitness (ln)” value (30 °C) is -3.48 ± 0.16 and the “self-splicing fitness (ln)” value (37 °C) was -1.5 ± 0.12.

In the case of AAGGAGCAAUAUUACGAUGU, the “self-splicing fitness (ln)” value is -2.12 ± 0.14 (30 °C) and -2.28 ± 0.23 (37 °C).

Turning to UCCCAGCAAUAUUACGCUUC, the “self-splicing fitness (ln)” value is -2.73 ± 0.19 (30 °C) and -2.76 ± 0.48 (37 °C).

UAUCAGCAAUAUUACGCCUA: the “self-splicing fitness (ln)” value came out at 0.206 ± 0.11 (30 °C) and 0.701 ± 0.13 (37 °C).

In the case of AGGCAGCAAUAUUACGAAGG, the “self-splicing fitness (ln)” value reads like this: (30 °C) -1.9 ± 0.22; (37 °C) -1.56 ± 0.27.

On to UGUGAGCAAUAUUACGCAGG, for which the “self-splicing fitness (ln)” value by setting is: (30 °C) -3.81 ± 0.42; (37 °C) -1.39 ± 0.27.

Consider UUGAAGCAAUAUUACGAAUG, for which the “self-splicing fitness (ln)” value was -0.746 ± 0.081 (30 °C) and -0.263 ± 0.11 (37 °C).

Take GCCAAGCAAUAUUACGGCUG: the “self-splicing fitness (ln)” value by setting is: (30 °C) -3.81 ± 0.13; (37 °C) -3.25 ± 0.19.

As for GAACAGCAAUAUUACGUACU, the “self-splicing fitness (ln)” value (30 °C) is -1.26 ± 0.077 and the “self-splicing fitness (ln)” value (37 °C) was -0.125 ± 0.1.

For the sequence UACGAGCAAUAUUACGGCAU, the “self-splicing fitness (ln)” value runs as follows: (30 °C) -3.45 ± 0.23; (37 °C) -1.25 ± 0.15.

As to GACUAGCAAUAUUACGCACG, the “self-splicing fitness (ln)” value (30 °C) is -0.535 ± 0.068 and the “self-splicing fitness (ln)” value (37 °C) turned out to be 0.219 ± 0.085.

As to AGGCAGCAAUAUUACGGUCC, the “self-splicing fitness (ln)” value is -1.61 ± 0.15 (30 °C) and -1.64 ± 0.26 (37 °C).

With AGAGAGCAAUAUUACGAUCU, the “self-splicing fitness (ln)” value was -4.39 ± 0.42 (30 °C) and -2.22 ± 0.2 (37 °C).

As to AUGCAGCAAUAUUACGCAUA, the “self-splicing fitness (ln)” value (37 °C) is -2.06 ± 0.38.

Take AUGUAGCAAUAUUACGUAUA: the “self-splicing fitness (ln)” value by setting is: (30 °C) -1.99 ± 0.2; (37 °C) -1.58 ± 0.21.

For AUAGAGCAAUAUUACGGGUG, the “self-splicing fitness (ln)” value reads like this: (30 °C) -3.22 ± 0.24; (37 °C) -2.58 ± 0.26.

Turning to ACGAAGCAAUAUUACGCCGG, the “self-splicing fitness (ln)” value is, setting by setting: (30 °C) -0.858 ± 0.11; (37 °C) -0.467 ± 0.11.

For the sequence UCCAAGCAAUAUUACGUAAU, the “self-splicing fitness (ln)” value by setting is: (30 °C) -1.94 ± 0.11; (37 °C) -0.725 ± 0.14.

For AAUGAGCAAUAUUACGGCGG, the “self-splicing fitness (ln)” value was -4.11 ± 0.34 (30 °C) and -2.69 ± 0.29 (37 °C).

Turning to GAUGAGCAAUAUUACGAUGC, the “self-splicing fitness (ln)” value is, setting by setting: (30 °C) -1.35 ± 0.086; (37 °C) -0.41 ± 0.12.

As to CGGAAGCAAUAUUACGAAUU, the “self-splicing fitness (ln)” value (30 °C) is -3.28 ± 0.36 and the “self-splicing fitness (ln)” value (37 °C) was -2.77 ± 0.44.

For CAGAAGCAAUAUUACGUUCU, the “self-splicing fitness (ln)” value runs as follows: (30 °C) -2.75 ± 0.11; (37 °C) -1.88 ± 0.1.

UAGUAGCAAUAUUACGGCGU: the “self-splicing fitness (ln)” value reads like this: (30 °C) -2.15 ± 0.17; (37 °C) -1.2 ± 0.17.

Regarding CGGGAGCAAUAUUACGCUGG, the “self-splicing fitness (ln)” value is -4.21 ± 0.42 (30 °C) and -2 ± 0.3 (37 °C).

For the sequence AGCGAGCAAUAUUACGCUCU, the “self-splicing fitness (ln)” value is, setting by setting: (30 °C) -3.64 ± 0.35; (37 °C) -2.61 ± 0.29.

As for UAAUAGCAAUAUUACGGGAU, the “self-splicing fitness (ln)” value is, setting by setting: (30 °C) -4.36 ± 0.46; (37 °C) -2.49 ± 0.22.

With UGGUAGCAAUAUUACGACCC, the “self-splicing fitness (ln)” value (30 °C) is 0.0232 ± 0.27 and the “self-splicing fitness (ln)” value (37 °C) was -0.576 ± 0.36.

Regarding UCGAAGCAAUAUUACGUAGU, the “self-splicing fitness (ln)” value by setting is: (30 °C) -2.53 ± 0.11; (37 °C) -0.666 ± 0.11.

For the sequence UUGGAGCAAUAUUACGCAGC, the “self-splicing fitness (ln)” value was -3.49 ± 0.49 (30 °C) and -1.51 ± 0.36 (37 °C).

GUGAAGCAAUAUUACGAUAC: the “self-splicing fitness (ln)” value is -0.501 ± 0.11 (30 °C) and -0.461 ± 0.14 (37 °C).

For the sequence AGAGAGCAAUAUUACGGUGC, the “self-splicing fitness (ln)” value runs as follows: (30 °C) -4.34 ± 0.42; (37 °C) -2.07 ± 0.29.

On to GCAAAGCAAUAUUACGUUUU, for which the “self-splicing fitness (ln)” value is, setting by setting: (30 °C) -2.95 ± 0.11; (37 °C) -3 ± 0.18.

For CGGUAGCAAUAUUACGUGUU, the “self-splicing fitness (ln)” value by setting is: (30 °C) -4.12 ± 0.28; (37 °C) -3.09 ± 0.27.

Turning to AUCAAGCAAUAUUACGGGGC, the “self-splicing fitness (ln)” value was -3.13 ± 0.24 (30 °C) and -3.01 ± 0.26 (37 °C).

Regarding ACAAAGCAAUAUUACGUUUG, the “self-splicing fitness (ln)” value (30 °C) was -2.98 ± 0.1 and the “self-splicing fitness (ln)” value (37 °C) is -1.65 ± 0.12.

As to CUAAAGCAAUAUUACGGCAA, the “self-splicing fitness (ln)” value is -3.27 ± 0.18 (30 °C) and -1.35 ± 0.15 (37 °C).

Take GCUUAGCAAUAUUACGCGUC: the “self-splicing fitness (ln)” value runs as follows: (30 °C) -0.947 ± 0.13; (37 °C) -0.88 ± 0.13.

With AAGCAGCAAUAUUACGCUAA, the “self-splicing fitness (ln)” value by setting is: (30 °C) -1.46 ± 0.075; (37 °C) -1.12 ± 0.086.

Take CCAGAGCAAUAUUACGAGCA: the “self-splicing fitness (ln)” value runs as follows: (30 °C) -5.29 ± 0.41; (37 °C) -2.32 ± 0.19.

For the sequence CCACAGCAAUAUUACGAUAA, the “self-splicing fitness (ln)” value runs as follows: (30 °C) -3.11 ± 0.25; (37 °C) -2.75 ± 0.32.

Turning to UAUAAGCAAUAUUACGCAUG, the “self-splicing fitness (ln)” value (30 °C) was -0.714 ± 0.12 and the “self-splicing fitness (ln)” value (37 °C) is -0.154 ± 0.13.

As to UCGUAGCAAUAUUACGGCAU, the “self-splicing fitness (ln)” value was -3.93 ± 0.27 (30 °C) and -2.53 ± 0.28 (37 °C).

With UAUAAGCAAUAUUACGGAUG, the “self-splicing fitness (ln)” value is, setting by setting: (30 °C) -0.677 ± 0.055; (37 °C) -0.286 ± 0.083.

With CGCCAGCAAUAUUACGGUAU, the “self-splicing fitness (ln)” value by setting is: (30 °C) -2.65 ± 0.088; (37 °C) -0.699 ± 0.1.

As for CAACAGCAAUAUUACGAUAA, the “self-splicing fitness (ln)” value is, setting by setting: (30 °C) -2.08 ± 0.1; (37 °C) -1.67 ± 0.11.

Turning to AAAGAGCAAUAUUACGGUUA, the “self-splicing fitness (ln)” value reads like this: (30 °C) -2.49 ± 0.21; (37 °C) -2.06 ± 0.18.
